In patent publication US20110039331A1 (OSAKA UNIVERSITY, published 2011):

How the values were obtained:
[1] = molecular target: Flag-tagged Fn (Flag-Fn) (human) (UniProt P02751); test: SPR (Biacore), Flag-Fn on the chip, M2 antibody flowed over
[2] = molecular target: P20.1 antibody (monoclonal antibody produced by mouse-mouse hybridoma P20.1, FERM BP-11061); test: competitive elution of the P4×3-tagged hGH fusion protein from P20.1 antibody-Sepharose, SDS gel
[3] = molecular target: P20.1 antibody (monoclonal antibody produced by mouse-mouse hybridoma P20.1, FERM BP-11061); test: competitive dissociation ELISA: free peptide added for 30 minutes to P20.1 antibody bound on coated P4(20)-Fn
[4] = molecular target: P20.1 antibody (monoclonal antibody produced by mouse-mouse hybridoma P20.1, FERM BP-11061); test: competitive dissociation ELISA: P20.1 antibody bound to coated P4(20)-Fn, free P4(C8) peptide added at the final washing step for 30 minutes; displaced partner P4(20)-Fn
[5] = molecular target: T1, hGH-BAS-γC-P4×3, human growth factor/human fibrinogen γ chain C domain fusion protein with 3 repeats of the … (human, UniProt P01241 27-217; P02679 169-437); test: SPR (Biacore X-100), P20.1 antibody-immobilized chip, fusion protein flowed over
T1 construct: also called P4×3-tagged hGH fusion protein

[6] = molecular target: hGH-BAS-γC-P4×5, human growth factor/human fibrinogen γ chain C domain fusion protein with 5 repeats of the … (human, UniProt P01241 27-217; P02679 169-437); test: as above
[7] = molecular target: T2, tag peptide/F-spondin fusion protein (P4×3, TEV protease cleavage sequence, N-terminal 146-amino-acid domain …); test: affinity purification from culture supernatant on P20.1 antibody-Sepharose, elution with 40% propylene glycol and 1 M NaCl, SDS gel electrophoresis
T2 construct: Secreted from HEK293T cells; also called recombinant F-spondin protein
T2 chain: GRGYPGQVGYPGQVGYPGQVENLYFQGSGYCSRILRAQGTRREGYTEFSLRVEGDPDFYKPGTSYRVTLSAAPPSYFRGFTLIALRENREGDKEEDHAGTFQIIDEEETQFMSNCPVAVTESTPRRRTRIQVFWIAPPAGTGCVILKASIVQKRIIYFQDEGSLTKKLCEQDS
Protocol: Washing with TBS and eluting with a buffer solution containing 40% propylene glycol and 1 M NaCl were performed, and the resulting effluent was subjected to SDS gel electrophoresis.

[8] = molecular target: T3, P4(C8) peptide (8-residue peptide PRGYPGQV) (human); test: X-ray crystallography of the complex
T3 peptide: PRGYPGQV

Chain of Flag-tagged Fn (Flag-Fn) (human) (P02751 other isoform, or with tags, fused parts or gaps limits assumed): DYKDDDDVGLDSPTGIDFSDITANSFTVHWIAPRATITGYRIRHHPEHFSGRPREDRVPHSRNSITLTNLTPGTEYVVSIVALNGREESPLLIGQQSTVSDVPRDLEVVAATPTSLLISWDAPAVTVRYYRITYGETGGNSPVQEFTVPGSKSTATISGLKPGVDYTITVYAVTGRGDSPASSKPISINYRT

## commercially available anti-Flag antibody M2
[1]
  Kd: 2.7 nM
  koff: 0.000395 s⁻¹
  kon: 146000 M⁻¹ s⁻¹

## PRGYPGQV [P4(C8) peptide (8-residue peptide PRGYPGQV)]
[2]
  peptide concentration that elutes the tagged fusion protein: > 0.1 mg/mL
[3]
  peptide concentration at which almost complete dissociation was confirmed: 0.1 mg/mL
[4]
  IC50 (read off the curve): 10 µg/mL

B1: P20.1 antibody (monoclonal antibody produced by mouse-mouse hybridoma P20.1, FERM BP-11061) (antibody, mouse IgG1, V domains shown)
VH: QIQLVQSGPEVQKPGETVRISCKASGYTFTTAGMQWVQKMPGKSLKWIGWINTRSGVPKYAEDFKGRFAFSLETSASIAYLHINNLKNEDTATYFCAREGPGFVYWGQGTLVTVSA
VL: QTVVTQESALTTSPGETVTLTCRSSTGVVTTSNYANWVQEKPDHLFTGLIVGTNNRVPGVPPRFSGSLIGDKAALTITGAQTEDEAIYFCALWYSNHWVFGGGTKLTVL
notes: Biotinylated in the sandwich ELISA of 7-2-1 and coupled to CNBr-Sepharose in the pull-down and purification experiments; also called P20.1 Ab; monoclonal P20.1 antibody
[5]
  fold of the maximum binding capacity against the fusion protein with one repeat: ≥ 4 fold
[6]
  fold of the maximum binding capacity against the fusion protein with one repeat: ≥ 4 fold
[7]
  binding result: binds

B2: Fab fragment of the P20.1 antibody (Fab, V domains shown)
VH: B1 VH
VL: B1 VL
notes: Made by papain digestion of the purified IgG1/lambda antibody; also called P20.1 antibody Fab fragment
[8]
  binding result: binds
